Data reported in the supplement of paper PMC10567573.

B1: VPS39 (parent)
chain: ITEEKVCMVCKKKIGNSAFARYPN
B2: ZNF277 (parent)
chain: ILREELQKQRLREILEQQQQERND

Variants of: B1
Experiment: protein stability index of a GFP-peptide fusion (GPS, HEK-293T) (PSI 1-6); higher = more stable
Settings: c terminus: a fixed tail appended
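Further: lentivirally expressed fusions sorted by FACS into six bins by GFP to DsRed ratio, PSI derived from sequencing read proportions per bin multiplied by bin number.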

Variant	protein stability index
ITEEKVCMVCKKKIGNSAFHRYPN [A20H]	2.38
ITEEKVCMVCKKKIGNSAFIRYPN [A20I]	3.49
ITEEKVCMVCKKKIGNSAFKRYPN [A20K]	2.26
ITEEKVCMVCKKKIGNSAFLRYPN [A20L]	2.09
ITEEKVCMVCKKKIGNSAFMRYPN [A20M]	2.43
ITEEKVCMVCKKKIGNSAFNRYPN [A20N]	2.32
ITEEKVCMVCKKKIGNSAFPRYPN [A20P]	2.62
ITEEKVCMVCKKKIGNSAFQRYPN [A20Q]	2.74
ITEEKVCMVCKKKIGNSAFRRYPN [A20R]	2.62
ITEEKVCMVCKKKIGNSAFSRYPN [A20S]	3.16
ITEEKVCMVCKKKIGNSAFTRYPN [A20T]	2.73
ITEEKVCMVCKKKIGNSAFVRYPN [A20V]	2.38
ITEEKVCMVCKKKIGNSAFWRYPN [A20W]	2.16
ITEEKVCMVCKKKIGNSAFYRYPN [A20Y]	2.31
ITEEKVCMVCKKKIGNSAFAAYPN [R21A]	2.86
ITEEKVCMVCKKKIGNSAFACYPN [R21C]	2.5
ITEEKVCMVCKKKIGNSAFADYPN [R21D]	4.02
ITEEKVCMVCKKKIGNSAFAEYPN [R21E]	3.15
ITEEKVCMVCKKKIGNSAFAFYPN [R21F]	2.39
ITEEKVCMVCKKKIGNSAFAGYPN [R21G]	2.83
ITEEKVCMVCKKKIGNSAFAHYPN [R21H]	2.99
ITEEKVCMVCKKKIGNSAFAIYPN [R21I]	2.93
ITEEKVCMVCKKKIGNSAFAKYPN [R21K]	2.77

Variant	protein stability index
ITEEKVCMVCKKKIGNSAFALYPN [R21L]	2.45
ITEEKVCMVCKKKIGNSAFAMYPN [R21M]	2.71
ITEEKVCMVCKKKIGNSAFANYPN [R21N]	2.71
ITEEKVCMVCKKKIGNSAFAPYPN [R21P]	3.02
ITEEKVCMVCKKKIGNSAFAQYPN [R21Q]	2.75
ITEEKVCMVCKKKIGNSAFASYPN [R21S]	2.58
ITEEKVCMVCKKKIGNSAFATYPN [R21T]	2.55
ITEEKVCMVCKKKIGNSAFAVYPN [R21V]	2.59
ITEEKVCMVCKKKIGNSAFAWYPN [R21W]	1.94
ITEEKVCMVCKKKIGNSAFAYYPN [R21Y]	3.13
ITEEKVCMVCKKKIGNSAFARAPN [Y22A]	2.57
ITEEKVCMVCKKKIGNSAFARCPN [Y22C]	2.98
ITEEKVCMVCKKKIGNSAFARDPN [Y22D]	3.12
ITEEKVCMVCKKKIGNSAFAREPN [Y22E]	3.55
ITEEKVCMVCKKKIGNSAFARFPN [Y22F]	2.31
ITEEKVCMVCKKKIGNSAFARGPN [Y22G]	2.64
ITEEKVCMVCKKKIGNSAFARHPN [Y22H]	2.77
ITEEKVCMVCKKKIGNSAFARIPN [Y22I]	2.39
ITEEKVCMVCKKKIGNSAFARKPN [Y22K]	2.82
ITEEKVCMVCKKKIGNSAFARLPN [Y22L]	2.22
ITEEKVCMVCKKKIGNSAFARMPN [Y22M]	2.9
ITEEKVCMVCKKKIGNSAFARNPN [Y22N]	2.72
ITEEKVCMVCKKKIGNSAFARPPN [Y22P]	2.65

Variant	protein stability index
ITEEKVCMVCKKKIGNSAFARQPN [Y22Q]	2.77
ITEEKVCMVCKKKIGNSAFARRPN [Y22R]	2.35
ITEEKVCMVCKKKIGNSAFARSPN [Y22S]	2.81
ITEEKVCMVCKKKIGNSAFARTPN [Y22T]	2.95
ITEEKVCMVCKKKIGNSAFARVPN [Y22V]	2.38
ITEEKVCMVCKKKIGNSAFARWPN [Y22W]	1.63
ITEEKVCMVCKKKIGNSAFARYAN [P23A]	2.38
ITEEKVCMVCKKKIGNSAFARYCN [P23C]	2.8
ITEEKVCMVCKKKIGNSAFARYDN [P23D]	3.19
ITEEKVCMVCKKKIGNSAFARYEN [P23E]	3.38
ITEEKVCMVCKKKIGNSAFARYFN [P23F]	1.76
ITEEKVCMVCKKKIGNSAFARYGN [P23G]	2.7
ITEEKVCMVCKKKIGNSAFARYHN [P23H]	2.04
ITEEKVCMVCKKKIGNSAFARYIN [P23I]	2.63
ITEEKVCMVCKKKIGNSAFARYKN [P23K]	2.13
ITEEKVCMVCKKKIGNSAFARYLN [P23L]	2.57
ITEEKVCMVCKKKIGNSAFARYMN [P23M]	1.78
ITEEKVCMVCKKKIGNSAFARYNN [P23N]	2.32
ITEEKVCMVCKKKIGNSAFARYQN [P23Q]	2.26
ITEEKVCMVCKKKIGNSAFARYRN [P23R]	2.49
ITEEKVCMVCKKKIGNSAFARYSN [P23S]	2.56
ITEEKVCMVCKKKIGNSAFARYTN [P23T]	2.13
ITEEKVCMVCKKKIGNSAFARYVN [P23V]	4.25

Variant	protein stability index
ITEEKVCMVCKKKIGNSAFARYWN [P23W]	1.75
ITEEKVCMVCKKKIGNSAFARYYN [P23Y]	1.74
ITEEKVCMVCKKKIGNSAFARYPA [N24A]	2.11
ITEEKVCMVCKKKIGNSAFARYPC [N24C]	2.34
ITEEKVCMVCKKKIGNSAFARYPD [N24D]	2.6
ITEEKVCMVCKKKIGNSAFARYPE [N24E]	2.05
ITEEKVCMVCKKKIGNSAFARYPF [N24F]	1.85
ITEEKVCMVCKKKIGNSAFARYPG [N24G]	1.77
ITEEKVCMVCKKKIGNSAFARYPH [N24H]	2.36
ITEEKVCMVCKKKIGNSAFARYPI [N24I]	1.86
ITEEKVCMVCKKKIGNSAFARYPK [N24K]	2.24
ITEEKVCMVCKKKIGNSAFARYPL [N24L]	2.27
ITEEKVCMVCKKKIGNSAFARYPM [N24M]	2.06
ITEEKVCMVCKKKIGNSAFARYPP [N24P]	2.37
ITEEKVCMVCKKKIGNSAFARYPQ [N24Q]	2.52
ITEEKVCMVCKKKIGNSAFARYPS [N24S]	2.18
ITEEKVCMVCKKKIGNSAFARYPT [N24T]	2.88
ITEEKVCMVCKKKIGNSAFARYPV [N24V]	1.65
ITEEKVCMVCKKKIGNSAFARYPW [N24W]	1.93
ITEEKVCMVCKKKIGNSAFARYPY [N24Y]	2.39

Variants of: B2
Experiment: as above
Settings: c terminus: a fixed tail appended

Variant	protein stability index
ILREELQKQRLRERLEQQQQERND [I14R]	3.49
ILREELQKQRLIEILEQQQQERND [R12I]	4.15
ILREELQKQRLREILKQQQQERND [E16K]	3.83
ILREELQKQRLAEILEQQQQERND [R12A]	4.73
ILREELQKQRYREILEQQQQERND [L11Y]	4.58
ILREELQKQRLREIVEQQQQERND [L15V]	4.37
ILREELQLQRLREILEQQQQERND [K8L]	3.63
ILRRELQKQRLREILEQQQQERND [E4R]	3.61
ILREELQKQRLREILEQTQQERND [Q18T]	3.57
ILREMLQKQRLREILEQQQQERND [E5M]	3.05
ILREELVKQRLREILEQQQQERND [Q7V]	3.58
ILREELQVQRLREILEQQQQERND [K8V]	4.07
ILREELQKQRLREILEQQQQQRND [E21Q]	3.38
ILREELQKQRLREILEPQQQERND [Q17P]	4.2
ILREELQKQRLREILEQQFQERND [Q19F]	2.91
ILREELQKQRLREILEQQEQERND [Q19E]	3.98
ILREELQKQRLRLILEQQQQERND [E13L]	3.75
ILREELQKQRLRHILEQQQQERND [E13H]	4.46
ILREELQKQRLREILEQQQQERMD [N23M]	4.14
ILREELQKQTLREILEQQQQERND [R10T]	4.59
ILREELQKQRLREIAEQQQQERND [L15A]	5.04
ILREELQKQRLREILEQQQQERNP [D24P]	3.85
ITREELQKQRLREILEQQQQERND [L2T]	5.04
ILRYELQKQRLREILEQQQQERND [E4Y]	3.38
ILREELQKQRLREILEQQSQERND [Q19S]	4.41

Variant	protein stability index
ILREELQPQRLREILEQQQQERND [K8P]	5.07
ILREELQKQRLREILEHQQQERND [Q17H]	4.38
ILHEELQKQRLREILEQQQQERND [R3H]	4.46
ILREELQKQRLREIYEQQQQERND [L15Y]	4.18
ILREELQKQREREILEQQQQERND [L11E]	5.06
ILREELQKKRLREILEQQQQERND [Q9K]	4.42
ILRMELQKQRLREILEQQQQERND [E4M]	3.75
ILREDLQKQRLREILEQQQQERND [E5D]	4.76
IDREELQKQRLREILEQQQQERND [L2D]	5.63
ILREELQKQSLREILEQQQQERND [R10S]	4.7
ILREELQMQRLREILEQQQQERND [K8M]	4.12
ILREELQKQRLREILEQQQQERNR [D24R]	3.48
ILRFELQKQRLREILEQQQQERND [E4F]	2.99
ILREELQKQRLREILEQQQQSRND [E21S]	4.41
ILAEELQKQRLREILEQQQQERND [R3A]	4.3
ILRSELQKQRLREILEQQQQERND [E4S]	4.18
ILRIELQKQRLREILEQQQQERND [E4I]	3.79
ILREELQKQRAREILEQQQQERND [L11A]	4.83
ILREELQKQRLREIQEQQQQERND [L15Q]	5.14
ILREELHKQRLREILEQQQQERND [Q7H]	4.47
IEREELQKQRLREILEQQQQERND [L2E]	5.51
ILREELQKQLLREILEQQQQERND [R10L]	2.56
ILREELQKQRLREILEQEQQERND [Q18E]	4.93
ILREELQKQRLREILEMQQQERND [Q17M]	3.88
ILREELQKQRLFEILEQQQQERND [R12F]	4.23

Variant	protein stability index
IGREELQKQRLREILEQQQQERND [L2G]	5.11
ILREELQKQRLREILEQQQTERND [Q20T]	3.29
KLREELQKQRLREILEQQQQERND [I1K]	4.24
ILRQELQKQRLREILEQQQQERND [E4Q]	3.99
ILREELQKQRLREDLEQQQQERND [I14D]	5.07
ILREELQKQRLREILEQQHQERND [Q19H]	4.67
ILREELQAQRLREILEQQQQERND [K8A]	4.7
ILREELQKQRSREILEQQQQERND [L11S]	4.68
ILREELQKQVLREILEQQQQERND [R10V]	4.07
ILYEELQKQRLREILEQQQQERND [R3Y]	3.64
ILREELQKQRLREILEQQQQERWD [N23W]	3.22
ILREELQKQRLREILEIQQQERND [Q17I]	3.33
ILREELQKQRLREILEQRQQERND [Q18R]	4.97
ILREALQKQRLREILEQQQQERND [E5A]	2.71
ILREELQKQRLREILSQQQQERND [E16S]	4.04
ILREELFKQRLREILEQQQQERND [Q7F]	2.93
ILREELQKQRLREILEQQCQERND [Q19C]	4.45
ILREELQKQRLYEILEQQQQERND [R12Y]	3.87
ILREELQKQRLREILEFQQQERND [Q17F]	3.87
ILREELQKQRLREILEQQQQMRND [E21M]	3.73
ILREELIKQRLREILEQQQQERND [Q7I]	2.9
PLREELQKQRLREILEQQQQERND [I1P]	4.73
ILREELSKQRLREILEQQQQERND [Q7S]	4.11
ILREEEQKQRLREILEQQQQERND [L6E]	5.19
ILREELQKQRLWEILEQQQQERND [R12W]	3.67

Variant	protein stability index
ILREELQKQRLREILEQQQQERYD [N23Y]	3.56
ILREERQKQRLREILEQQQQERND [L6R]	4.88
ILREELQKQRLREILEQAQQERND [Q18A]	3.98
ILREELQKQRLDEILEQQQQERND [R12D]	5.8
LLREELQKQRLREILEQQQQERND [I1L]	4.09
ILREELQKQRLREILEQVQQERND [Q18V]	3.83
ILREELQKQRLREILEQQQQYRND [E21Y]	3.73
ILREELQKQRLREILEQSQQERND [Q18S]	3.99
ILREYLQKQRLREILEQQQQERND [E5Y]	3.55
ILREELQKQRLREILEQQQQEGND [R22G]	4.67
ILREELQKQRLREILEQQQQERNS [D24S]	3.68
ILREELQHQRLREILEQQQQERND [K8H]	4.41
VLREELQKQRLREILEQQQQERND [I1V]	4.4
ILREELQKQRLREILEDQQQERND [Q17D]	4.54
ILRERLQKQRLREILEQQQQERND [E5R]	3.68
ILREELQKHRLREILEQQQQERND [Q9H]	5.05
ILREELQKQRLREILEQQQKERND [Q20K]	4.51
ILREELQKQRLREILEQQQQERTD [N23T]	4.37
ILFEELQKQRLREILEQQQQERND [R3F]	3.4
ILREELQKQRLREILEQQQQERVD [N23V]	3.89
ILREELQKQRLREELEQQQQERND [I14E]	4.85
GLREELQKQRLREILEQQQQERND [I1G]	4.93
WLREELQKQRLREILEQQQQERND [I1W]	4.19
ILREELQKQRLREIDEQQQQERND [L15D]	4.77
